Experimental findings from patent US20220348667A1 (LUXEMBOURG INSTITUTE OF HEALTH LIH, published 2022) are described below.

Assay [1] deals with murine ACKR2 stably overexpressed on HEK293T cells (HEK.mACKR2) (mouse) (UniProt O08707). As to the kind of experiment: flow cytometry binding competition on HEK.mACKR2 cells, CCL5-AF647 (30 nM) as competitor.
Assay [2] concerns the target T1, human ACKR2 stably expressed on HEK293T cells (HEK.ACKR2) (human, UniProt O00590 1-384).
T1 construct: whole, on cells; also called hACKR2; HEK.hACKR2
T1 sequence (looked up): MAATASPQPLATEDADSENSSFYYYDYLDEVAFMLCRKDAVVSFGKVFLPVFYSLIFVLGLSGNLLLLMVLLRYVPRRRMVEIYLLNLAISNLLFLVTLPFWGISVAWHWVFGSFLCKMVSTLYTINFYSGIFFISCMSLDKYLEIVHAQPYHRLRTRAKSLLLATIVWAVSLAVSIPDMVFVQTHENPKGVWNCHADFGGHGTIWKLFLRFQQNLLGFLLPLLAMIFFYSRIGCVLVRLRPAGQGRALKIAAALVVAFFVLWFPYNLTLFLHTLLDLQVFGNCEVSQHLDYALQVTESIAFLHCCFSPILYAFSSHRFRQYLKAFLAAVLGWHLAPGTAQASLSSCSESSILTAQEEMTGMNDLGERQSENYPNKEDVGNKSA
Briefly: flow cytometry, displacement of CXCL10-Cy5 from HEK.ACKR2 cells by unlabelled chemokine (50 nM). How it is done:
HEK293T and HEK-ACKR2 cells were incubated with CXCL10-Cy5 at indicated concentrations for 45 minutes at 37° C., then washed twice with FACS buffer (PBS, 1% BSA, 0.1% NaN₃). Dead cells were excluded using Zombie Green viability dye (BioLegend). ACKR2-negative HEK293T cells were used to evaluate non-specific binding of CXCL10-Cy5. For binding competition with unlabelled chemokines (50 nM), the signal obtained for CXCL10-Cy5 in the absence of unlabelled chemokines was used to define 100% binding. Ligand binding was quantified by mean fluorescence intensity on a BD FACS Fortessa cytometer (BD Biosciences).

Bounds are passed on as bounds.

Sequence of murine ACKR2 stably overexpressed on HEK293T cells (HEK.mACKR2) (mouse) (O08707 whole entry): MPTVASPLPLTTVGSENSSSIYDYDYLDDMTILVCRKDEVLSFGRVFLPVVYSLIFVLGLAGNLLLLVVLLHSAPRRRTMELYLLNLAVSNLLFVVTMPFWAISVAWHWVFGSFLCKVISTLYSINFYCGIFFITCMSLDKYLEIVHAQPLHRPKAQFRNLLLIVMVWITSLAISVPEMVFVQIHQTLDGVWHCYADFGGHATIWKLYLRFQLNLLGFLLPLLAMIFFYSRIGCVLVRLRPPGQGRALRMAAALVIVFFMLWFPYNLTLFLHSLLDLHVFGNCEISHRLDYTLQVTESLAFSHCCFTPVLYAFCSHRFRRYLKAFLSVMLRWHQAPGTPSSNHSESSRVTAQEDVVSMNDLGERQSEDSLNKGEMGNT

“polyclonal Goat anti-mACKR2 (ab1656, Abcam) (antibody)” had a % displacement of CCL5-AF647 at 50 µg/ml antibody in assay [1] of more than 80%.

B1: CCL5 (unlabelled, PeproTech) (ligand, human, UniProt P13501 24-91, looked up)
chain: SPYSSDTTPCCFAYIARPLPRAHIKEYFYTSGKCSNPAVVFVTRKNRQVCANPEKKWVREYINSLEMS
On to B1, for which the binding result in assay [2] is on record as “binds”.
